# Laboratory results from paper PMC6547419.
# T1: rVEGF164 (rat, UniProt P16612-2 27-190)
# T1 sequence: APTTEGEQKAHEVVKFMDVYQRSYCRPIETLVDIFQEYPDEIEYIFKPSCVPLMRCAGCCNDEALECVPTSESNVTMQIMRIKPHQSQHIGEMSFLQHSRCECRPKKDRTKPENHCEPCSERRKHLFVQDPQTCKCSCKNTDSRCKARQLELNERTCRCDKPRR
# Tests used:
# hVEGF165 = hVEGF165 (human, UniProt P15692-4 27-191); experiment: ELONA1
# rVEGF164 [1] = biological target: T1, rVEGF164; experiment: ELONA1
# rVEGF164 [2] = biological target: T1, rVEGF164; experiment: ELONA2
binder,measurement,setting,value
TGTGGGGGTGGACGGGCCGGGTAGA (ssDNA) [V7t1],Kd,hVEGF165,0.77 ± 0.17 nM
same,Kd,rVEGF164 [1],0.62 ± 0.14 nM
same,Kd,rVEGF164 [2],4.3 ± 0.5 nM
